Publication PMC6242907, “Molecular basis of maintaining an oxidizing environment under anaerobiosis by soluble fumarate reductase” (Nature Communications, 2018)

Key:
[1] = target: T1, Osm1 (residues 32-501), 6x His-tagged (S. cerevisiae, UniProt P21375 32-501); experiment: SPR; Biacore T-200, CM5 chip; MBP-Ero1 immobilised by amine coupling (1500 RU); Osm1 or chimeric Osm1 injected in PBS at 6.25 to 200 µM, 30 µL/min, 25 °C; affinity (steady-state) fitting; details: both partners purified
T1 construct: Osm1, soluble fumarate reductase of S. cerevisiae, amino acids 32-501, cloned in pET28a (NheI/XhoI); no removal of the tag is described except by trypsin for crystallisation; A31 is an extra residue from the cloning construct; The limits of the pET28a Osm1 used in the pull-down are not repeated in the methods; also called holo-Osm1; WT Osm1; source: also in lysate of BL21(DE3) co-expressing …

[2] = target: T1, Osm1 (residues 32-501), 6x His-tagged; experiment: ITC; nano-ITC; 2.5 µL injections of 1.6 mM Osm1 into 40 µM Ero1 in PBS; details: both partners purified

T1 sequence (P21375 32-501): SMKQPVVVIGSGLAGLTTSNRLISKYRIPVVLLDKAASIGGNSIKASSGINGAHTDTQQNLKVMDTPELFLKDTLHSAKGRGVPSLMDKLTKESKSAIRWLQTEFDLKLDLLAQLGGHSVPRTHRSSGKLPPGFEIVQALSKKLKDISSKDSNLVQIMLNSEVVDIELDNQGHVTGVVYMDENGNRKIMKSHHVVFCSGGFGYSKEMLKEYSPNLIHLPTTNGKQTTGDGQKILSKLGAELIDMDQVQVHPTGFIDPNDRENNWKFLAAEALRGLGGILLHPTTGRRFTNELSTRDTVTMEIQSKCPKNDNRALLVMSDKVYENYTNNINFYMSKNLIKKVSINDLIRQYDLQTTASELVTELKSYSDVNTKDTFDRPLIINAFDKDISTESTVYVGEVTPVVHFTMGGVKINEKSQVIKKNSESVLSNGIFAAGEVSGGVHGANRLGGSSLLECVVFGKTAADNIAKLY

Kd [1] [µM]	Kd [2] [µM]	Binder
~200		His6-maltose-binding protein (H6-MBP)-fused Ero1 (56-424) (enzyme, yeast, UniProt Q03103 56-424, looked up, Ero1, ER-resident flavoenzyme of yeast, residues 56-424; FAD cofactor; Uncleaved fusion (83 kDa) immobilised on the CM5 chip; a TEV site lies between H6-MBP and Ero1; The only purified MBP-Ero1 described in the methods is the H6-MBP fusion; also called MBP-Ero1; purified MBP-Ero1; source: E. coli Origami B(DE3), purified (HiTrap Ni2+, amylose)) FNELNAINENIRDDLSALLKSDFFKYFRLDLYKQCSFWDANDGLCLNRACSVDVVEDWDTLPEYWQPEILGSFNNDTMKEADDSDDECKFLDQLCQTSKKPVDIEDTINYCDVNDFNGKNAVLIDLTANPERFTGYGGKQAGQIWSTIYQDNCFTIGETGESLAKDAFYRLVSGFHASIGTHLSKEYLNTKTGKWEPNLDLFMARIGNFPDRVTNMYFNYAVVAKALWKIQPYLPEFSFCDLVNKEIKNKMDNVISQLDTKIFNEDLVFANDLSLTLKDEFRSRFKNVTKIMDCVQCDRCRLWGKIQTTGYATALKILFEINDADEFTKQHIVGKLTKYELIALLQTFGRLSESIESVNMFEKMYGKRL
	~150	Ero1 (56-424), H6-MBP cleaved off (enzyme, yeast, UniProt Q03103 56-424, looked up, Ero1, ER-resident flavoenzyme of yeast, residues 56-424; FAD cofactor; The ITC methods name only 'Ero1'; also called recombinant Ero1; source: E. coli Origami B(DE3), purified (HiTrap Ni2+, amylose, TEV cleavage, Ni2+ flow-through)) FNELNAINENIRDDLSALLKSDFFKYFRLDLYKQCSFWDANDGLCLNRACSVDVVEDWDTLPEYWQPEILGSFNNDTMKEADDSDDECKFLDQLCQTSKKPVDIEDTINYCDVNDFNGKNAVLIDLTANPERFTGYGGKQAGQIWSTIYQDNCFTIGETGESLAKDAFYRLVSGFHASIGTHLSKEYLNTKTGKWEPNLDLFMARIGNFPDRVTNMYFNYAVVAKALWKIQPYLPEFSFCDLVNKEIKNKMDNVISQLDTKIFNEDLVFANDLSLTLKDEFRSRFKNVTKIMDCVQCDRCRLWGKIQTTGYATALKILFEINDADEFTKQHIVGKLTKYELIALLQTFGRLSESIESVNMFEKMYGKRL
